From patent US6809076B2, “Use of anticoagulant agents in the extracorporeal treatment of blood” (Abbott GmbH & Co. KG, priority 2000, dated 2004)
Marks after values point to notes of the source that are not given here. PEG = not defined here

Key:
meizothrombin = molecular target: T1, meizothrombin (Homo sapiens, UniProt P00734); test: ECT (ecarin clotting time) determination in dialysis patients; format: in vivo
T1 construct: produces meizothrombin by cleavage of the prothromin in the plasma; from tissue; host or cells: citrated venous blood/plasma of human dialysis patients
Procedure: Determination of the ECT (ecarin clotting time) is based on the inhibition of the coagulation activity of meizothrombin. Ecarin, a purified fraction of Echis carinatus venom, produces meizothrombin by cleavage of the prothromin in the plasma. The time until fibrinogen coagulates induced by ecarin is measured.
The sample volume is about 100 μl.
Standard E: [c]=2500 ng/ml (1:20 dilution of standard C with normal human citrated plasma)
The measured results can also be stated as ratio and describe the ratio of the current value to the individual baseline value for a patient before the dialysis with PEG-hirudin.
The accuracy of measurement is +30% to −10%.

vascular complications = test: Prophylaxis of vascular complications between hemodialysis sessions; format: in vivo, human; conditions: residual concentration in blood between the hemodialysis sessions, 20 patients
Procedure: (§1) 20 male and female patients between 18 and 75 years who must regularly undergo hemodialysis were selected. After an initial treatment with heparin (UFH), each patient was given an intravenous injection, immediately before the first dialysis during PEG-hirudin treatment, of a dose of 0.08 mg/kg of PEG-hirudin with a specific antithrombin activity of 13,354 ATU/mg of protein per kg of body weight. This was followed by hemodialysis with an average duration of 4 hours, 3×a week using a Hemophan low flux membrane in a GFS plus 16 dialyzer. When the dialysis was complete and before the subsequent dialysis sessions, firstly the PEG-hirudin concentrations in the patient's blood were determined. The measured values served as the basis for the amount of the PEG-hirudin doses to be administered immediately before each hemodialysis.

thrombin [1] = molecular target: thrombin (Homo sapiens, UniProt P00734); test: Specific antithrombin activity (ATU, WHO I thrombin standard); format: biochemical
From the text: The blood levels described above can usually be obtained with bolus doses in the range from about […] to about 1400 ATU/kg, preferably from about 400 ATU/kg to about 1200 ATU/kg and, in particular, from about 600 ATU/kg to about 1000 ATU/kg, of body weight. After adaptation it is possible to treat individuals with chronic renal insufficiency, with an average of three exracorporeal circulations a week, with a dosage of about 200 to about 1000 ATU/kg, preferably of about 200 ATU/kg to about 800 ATU/kg and, in particular, from about 400 ATU/kg to about 600 ATU/kg, of body weight. The abbreviation ATU stands for antithrombin units bas ed on the WHO I thrombin standard.

plasma fibrin formation = test: APTT determination in dialysis patients; format: in vivo, human
Procedure: The determination of the activated partial thromboplastin time (APTT) is based on plasma fibrin formation induced by addition of a partial thromboplastin (Actin FS) and calicum [sic] ions to the plasma. Ellagic acid is used as activator.
The sample volume is at least 450 μl.
The controls used are control plasma in the normal range, control plasma in the therapeutic range, control plasma in the low therapeutic range and a quality control in the normal range, for example the controls commercially available from Dade citrol 1, Citrol 2, Citrol 3 and Coag Trol N.
The measurement is carried out in an ACL 3000.
The ACL 3000 is a completely automatic, microcomputer-controlled centrifugal analysis system. After the start of the analysis cycle, sample and Actin are pipetted separately into the half-cuvettes of a reaction rotor made of acrylic glass with 20 cuvettes, and are mixed and then incubate d. After the incubation, calcium chloride is pipetted into the cuvettes, mixed and measured. Measurements are carried out while the rotor is rotating. The light source for the nephelometric measurement is a light-emitting diode (LED) whose light beam is directed via a light guide system (γ=660 nm) onto the measuring cuvettes. The scattered light distribution is measured at an angle of 90° to the light source with the aid of a semiconductor sensor located underneath the rotor carrier. The measured results can also be stated as ratio and describe the ratio of the current value to the individual baseline value for a patient before the dialysis with PEG-hirudin.
The accuracy of measurement is +10% to −10%.

thrombin [2] = conditions: human, in vivo, iv, 0.08 mg/kg
Procedure: as §1
Determination of the anti-IIa activity is based on measurement of the activity remaining after addition of excess thrombin to the sample. Heparin and other non-thrombin serine proteases are neutralized before the assay by adding prothamine [sic] chloride and aprotinin to the sample. […]
The measurement is carried out in an ACL 3000 (incubation time: 120 s; inter-ramp interval: 3 s; delay time: 3 s; aquisition time: 120 s; speed: 600 rpm). The extinction is measured using a 405 nm filter at a constant rotor speed. […]

[3] = dialysis 04, first with PEG-hirudin (0.08 mg/kg i.v.)
[4] = dialysis 08, PEG-hirudin i.v. before each dialysis
[5] = dialysis 13, PEG-hirudin i.v. before each dialysis
[6] = dialysis 05, PEG-hirudin i.v. before each dialysis
[7] = dialysis 06, PEG-hirudin i.v. before each dialysis
[8] = dialysis 07, PEG-hirudin i.v. before each dialysis
[9] = dialysis 09, PEG-hirudin i.v. before each dialysis
[10] = dialysis 10, PEG-hirudin i.v. before each dialysis
[11] = dialysis 11, PEG-hirudin i.v. before each dialysis
[12] = dialysis 12, PEG-hirudin i.v. before each dialysis

B1: PEG-hirudin: polyethylene glycol conjugates of hirudin; preferably SEQ ID NO:1 polypeptide with PEG residues on lysine 27 and lysine 33 (conjugate)
chain: VVYTDCTESGQNLCLCEGSNVCGQGNK(PEG)CILGSK(PEG)GERNQCVTGEGTPRPQSHNDGDFEEIPEEYLQ
modifications: ends and bridges not checked
- ECT Bolus 5' after admin. (meizothrombin; [3]): 3.0 [s] [ratio]
- ECT Bolus 5' after admin. (meizothrombin; [4]): 3.1 [s] [ratio]
- ECT Bolus 5' after admin. (meizothrombin; [5]): 3.1 [s] [ratio]
- prophylactic protection against vascular complications (vascular complications): ensured prophylactic protection against vascular complications
- specific antithrombin activity (thrombin [1]; PEG-hirudin given to the patients): 13,354 ATU/mg of protein
- specific activity (thrombin [1]; Standard A, 26.6 mg/ml): 11,696 ATU/mg of protein
- APTT After dialysis (plasma fibrin formation; [3]): 2.2 ratio
- APTT Bolus 5' after admin. (plasma fibrin formation; [3]): 2.5 ratio
- APTT Before dialysis (plasma fibrin formation; dialysis 04, first with PEG-hirudin (0.08 mg/kg i.v.), before dose): 1.0 ratio
- APTT After dialysis (plasma fibrin formation; [6]): 2.3 ratio
- APTT Before dialysis (plasma fibrin formation; [6]): 1.7 ratio
- APTT After dialysis (plasma fibrin formation; [7]): 2.3 ratio
- APTT Before dialysis (plasma fibrin formation; [7]): 1.9 ratio
- APTT After dialysis (plasma fibrin formation; [8]): 2.2 ratio
- APTT Before dialysis (plasma fibrin formation; [8]): 1.9 ratio
- APTT After dialysis (plasma fibrin formation; [4]): 2.5 ratio
- APTT Before dialysis (plasma fibrin formation; [4]): 2.0 ratio
- APTT Bolus 5' after admin. (plasma fibrin formation; [4]): 2.6 ratio
- APTT After dialysis (plasma fibrin formation; [9]): 2.4 ratio
- APTT Before dialysis (plasma fibrin formation; [9]): 2.0 ratio
- APTT After dialysis (plasma fibrin formation; [10]): 2.3 ratio
- APTT Before dialysis (plasma fibrin formation; [10]): 2.0 ratio
- APTT After dialysis (plasma fibrin formation; [11]): 2.3 ratio
- APTT Before dialysis (plasma fibrin formation; [11]): 2.0 ratio
- APTT After dialysis (plasma fibrin formation; [12]): 2.3 ratio
- APTT Before dialysis (plasma fibrin formation; [12]): 2.0 ratio
- APTT After dialysis (plasma fibrin formation; [5]): 2.2 ratio
- APTT Before dialysis (plasma fibrin formation; [5]): 1.9 ratio
- APTT Bolus 5' after admin. (plasma fibrin formation; [5]): 2.5 ratio
- Anti-IIa After dialysis (thrombin [2]): 818 ng/mL
- Anti-IIa Bolus 5' after admin. (thrombin [2]; 5 min): 1298 ng/mL
